{"source": "paper PMC12203670", "about": "“MTX2 facilitates PKM2 tetramerization to promote cardiac glucose metabolism and protects the heart against ischemia/reperfusion injury” (Theranostics, 2025)", "molecular_target": "the molecule itself", "assay": "cross-linking; glutaraldehyde cross-linking, Western blot of PKM2 oligomers; Mtx2 KO H9C2 cells overexpressing MTX2 mutants, H/R", "note": "Where “and” joins values, the source holds several entries; their conditions need not be identical. Equal values may be shown once."}
{"protein": "PKM2 in Mtx2 KO H9C2 cells (cross-linking) (enzyme, pyruvate kinase PKM, splice isoform M2; also called dimeric PKM2; source: Mtx2 KO H9C2 cells overexpressing MTX2 mutants, H/R) not shown", "values": [{"measurement": "stoichiometry N", "result": "2 and 4"}]}
